# Data published in article doi:10.1101/2025.01.10.632391.
# Biological target: angiopoietin-like 6 (ANGPTL6) (UniProt Q8NI99)
# Test: SPR
# Chain of UniProt Q8NI99 (Q8NI99 21-470): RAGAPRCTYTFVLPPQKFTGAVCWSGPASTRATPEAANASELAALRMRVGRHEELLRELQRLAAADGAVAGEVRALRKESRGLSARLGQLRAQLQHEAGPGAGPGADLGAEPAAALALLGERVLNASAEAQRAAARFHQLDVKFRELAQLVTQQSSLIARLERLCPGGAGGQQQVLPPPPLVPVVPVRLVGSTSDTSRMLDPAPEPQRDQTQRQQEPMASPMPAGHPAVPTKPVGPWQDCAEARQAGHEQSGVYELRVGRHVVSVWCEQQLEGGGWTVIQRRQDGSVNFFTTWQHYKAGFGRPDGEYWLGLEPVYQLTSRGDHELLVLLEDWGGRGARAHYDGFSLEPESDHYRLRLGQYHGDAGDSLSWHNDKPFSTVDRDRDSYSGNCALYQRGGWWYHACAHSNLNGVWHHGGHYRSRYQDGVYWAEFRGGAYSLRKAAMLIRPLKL
substance,measurement,value
αVβ5 integrin (from UniProt P06756 31-1048; P18084 24-719) (complex),Kd,13 nM
same,koff,0.0012 s⁻¹
